T1: rat GM-CSF (rat, UniProt P48750 18-144)
T1 sequence (looked up): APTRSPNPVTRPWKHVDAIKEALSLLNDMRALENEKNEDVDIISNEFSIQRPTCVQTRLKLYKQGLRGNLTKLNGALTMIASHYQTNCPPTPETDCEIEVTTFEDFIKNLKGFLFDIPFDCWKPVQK

T2: mouse GM-CSF (mouse, UniProt P01587 18-141)
T2 sequence (looked up): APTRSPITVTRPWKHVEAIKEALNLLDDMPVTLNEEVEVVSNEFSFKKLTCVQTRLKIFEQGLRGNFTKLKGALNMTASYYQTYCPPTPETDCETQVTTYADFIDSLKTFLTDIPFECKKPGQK

B1: GCB59 (antibody, IgG1, V domains shown)
VH: EVQLVESGGDLVKAGGSLRLSCAVSGLSFSSSGMNWVRQAPGKGLEWISSISGSQNYKYYADSVKGRFVVSRDNARNFLYLQMDSLRAEDTAVYFCVGGFPYWLPPSDFSGFHVWGQGTTVTVSS
VL: SYVLTQPPSVSVAPGQTASLTCGGTNIGSKSVHWYQQKAGQAPVLVVYADNDRPSGVPERFSGSNSGNTATLTISRVEAEDESDYFCQVWDGNTDHVVFGGGTKLTVLG
notes: also called GCB59 antibody
B2: GCE536 (antibody, human IgG1, kappa, V domains shown)
VH: QLQLVQSGTEVKKPGASVKVSCKSSGYVFTSYYLVWVRQAPGQGLEWMATISPGDVNTSYEQRFQGRVTVTTDASTNTVDMELRSLRSEDTAVYYCARGPRSKPPYLYFALDVWGQGTAVTVSS
VL: EIVLTQSPGTLSLSPGETAILSCRASQSVSSSLLAWYQQKPGQAPRLLIYGASNRATGIRGRFSGSGSGTDFTLTISRLEPEDFVLYYCQHYGSRVTFGQGTKLEIKR
notes: also called GCE536 antibody
B3: GCA21 (antibody, IgG1, V domains shown)
VH: QVQLMESGGGVVQPGRSLRLSCSAFGFTFSNYPMHWVRQAPGKGLEWVAIILPDGNRKNYGRSVTGRFTISRDNSNNSLYLQMNNLTTEDTAMYYCTRDGTYYSNGGVYQTYRRFFDFWGRGTLVTVSS
VL: DIQMTQSPSTLSTSVGDRVTITCRASQNILNWLAWYQQKPGNAPNLLIYKASDLQSGVPSRFSGSGSGTEFTLTISSLQPDDFATYYCQHYNSYPLTFGGGTKVEIKR
notes: also called GCA21 antibody
B4: GCA7 (antibody, human IgG1, kappa, V domains shown)
VH: GVQLVQSGGGLVQPGGSLRLSCAASGFTVSTNYMSWVRQAPGKGLEWVSILYAGGVTRYADSVKTRFTISRDNSKNTLFLQMNALSAEDTAIYYCAKHYDSGYSTIDHFDSWGQGTLVTVSS
VL: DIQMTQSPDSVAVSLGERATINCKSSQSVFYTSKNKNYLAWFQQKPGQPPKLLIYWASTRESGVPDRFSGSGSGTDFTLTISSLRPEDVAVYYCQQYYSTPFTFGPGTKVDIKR
notes: also called GCA7 antibody

Each binder was assayed against T3, human GM-CSF (granulocyte macrophage-colony stimulating factor) (human, UniProt P04141 18-144) (assay: SPR (ProteOn), mAb captured on protein A, GM-CSF as analyte, Langmuir fit).
T3 construct: Soluble cytokine used in ELISA, SPR, TF-1 bioassay and immune complex formation; also called recombinant GM-CSF
Procedure: The kinetics of binding was determined by surface plasmon resonance (SPR). […] HEPES buffered saline (HBS) (10 mM HEPES, pH 7.4, 150 mM NaCl, 3 mM EDTA, 0.005% surfactant Tween-20) was used as running buffer. All injections were made at flow rate of 100 µl/min. […] Injection time and dissociation time were 120 s and 600 s, respectively. Each binding interaction of mAbs with GM-CSF was assessed using a ProteON XPR36 instrument (Biorad) and data processed with ProteOn Manager Software. Ka, Kd and KD were calculated applying the Langmuir fit model.

T3 sequence (P04141 18-144 limits assumed): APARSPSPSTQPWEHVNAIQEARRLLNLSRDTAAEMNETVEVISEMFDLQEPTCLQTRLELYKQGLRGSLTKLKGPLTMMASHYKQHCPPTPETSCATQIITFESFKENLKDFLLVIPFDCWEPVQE

Row | Kd [nM] | koff [s⁻¹] | kon [M⁻¹ s⁻¹] | Binder
1 | 0.68 | 0.0012 | 1.7e+06 | B1
2 | 0.18 | 0.00011 | 660000 | B2
3 | 0.69 | 0.00065 | 950000 | B3
4 | 0.38 | 6e-05 | 240000 | B4

What follows are binders tested against T3, human GM-CSF (granulocyte …) (assay: ELISA on human GM-CSF).
Procedure: All antibodies were recombinantly produced as IgG1 by transient transfection of HEK 293 Freestyle Cells (Invitrogen) using polyethylenimine (PEI). The antibodies were then tested for binding to human GM-CSF by ELISA. […] The EC50 values (ng/ml) were determined by ELISA and calculated for every sample by nonlinear regression analysis using GraphPad Prism 5 software.

Row | EC50 [µg/mL] | Binder
5 | 0.308 | B1
6 | 0.0614 | B2
7 | 0.0594 | B3
8 | 0.187 | B4

The binders below were run against T1, rat GM-CSF (assay: ELISA).

Row | binding result | Binder
9 | no binding | B1
10 | no binding | B2
11 | no binding | B3
12 | no binding | B4

What follows are binders tested against T2, mouse GM-CSF (assay: ELISA).

Row | binding result | Binder
13 | no binding | B1
14 | no binding | B2
15 | no binding | B3
16 | no binding | B4

Reference: patent US20200362026A1 (INSTITUTE FOR RESEARCH IN BIOMEDICINE, published 2020)
